# According to IntAct's records for PubMed 18940604:
# B1: Ras-related protein Rab-27A (Mus musculus), Q9ERI2 (parent)
# chain: MSDGDYDYLIKFLALGDSGVGKTSVLYQYTDGKFNSKFITTVGIDFREKRVVYRANGPDGAVGRGQRIHLQLWDTAGQERFRSLTTAFFRDAMGFLLLFDLTNEQSFLNVRNWISQLQMHAYCENPDIVLCGNKSDLEDQRAVKEEEARELAEKYGIPYFETSAANGTNISHAIEMLLDLIMKRMERCVDKSWIPEGVVRSNGHTSADQLSEEKEKGLCGC
# partner: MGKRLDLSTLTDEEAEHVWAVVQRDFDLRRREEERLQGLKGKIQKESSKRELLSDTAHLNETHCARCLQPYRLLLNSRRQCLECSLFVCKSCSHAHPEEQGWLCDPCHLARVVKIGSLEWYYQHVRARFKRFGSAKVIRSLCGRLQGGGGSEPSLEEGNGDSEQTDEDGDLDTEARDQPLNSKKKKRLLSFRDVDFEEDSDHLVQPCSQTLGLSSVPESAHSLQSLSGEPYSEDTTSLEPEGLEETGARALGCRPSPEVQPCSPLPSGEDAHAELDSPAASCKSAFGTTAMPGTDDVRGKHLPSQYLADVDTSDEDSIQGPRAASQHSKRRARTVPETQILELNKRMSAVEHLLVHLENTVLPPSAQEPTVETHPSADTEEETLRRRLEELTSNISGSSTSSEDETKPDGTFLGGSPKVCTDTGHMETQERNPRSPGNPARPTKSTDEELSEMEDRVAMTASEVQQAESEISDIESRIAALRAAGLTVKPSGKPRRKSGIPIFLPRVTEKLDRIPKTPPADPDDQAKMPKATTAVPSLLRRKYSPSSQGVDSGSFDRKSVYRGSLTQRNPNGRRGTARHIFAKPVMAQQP
# B2: Ras-related protein Rab-3A (Mus musculus), P63011 (parent)
# chain: MASATDSRYGQKESSDQNFDYMFKILIIGNSSVGKTSFLFRYADDSFTPAFVSTVGIDFKVKTIYRNDKRIKLQIWDTAGQERYRTITTAYYRGAMGFILMYDITNEESFNAVQDWSTQIKTYSWDNAQVLLVGNKCDMEDERVVSSERGRQLADHLGFEFFEASAKDNINVKQTFERLVDVICEKMSESLDTADPAVTGAKQGPQLTDQQAPPHQDCAC
# partner: B1 partner
# Variants of: B1
# Details: with melph_mouse Mlph
row,Variant,effect of a mutation on the interaction
1,Y6F;L84I;F88Y;D91G,disrupting interaction
2,Y6F,disrupting interaction

# Variants of: B2
# Details: with melph_mouse Mlph
row,Variant,effect of a mutation on the interaction
1,I87L;Y91F;G94D,disrupting interaction
2,F19Y;G94D,disrupting interaction
3,F19Y,disrupting interaction
4,G94D,disrupting interaction
